In PMC6555819, “Comprehensive study of nuclear receptor DNA binding provides a revised framework for understanding receptor specificity”:

The binders below were run against LXRa:RXRa (Homo sapiens, UniProt Q13133;P19793 full;full) (assay: no ligand; PBM; 270 nM : 90 nM RXRa; PBS pH 7.4, 2% milk, 0.02% Triton X-100, 1 mM DTT, BSA, 0.4 mg/ml salmon testes DNA). Settings: tags: His kept;His cleaved; copies: 1;1; label: surface-attached array probe.
In short: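 Custom Agilent 4×180K protein-binding microarrays carried double-stranded probes, each with a 34-nt variable region. These regions held direct-repeat seeds, single-nucleotide variants, half-site ablations and random human genomic background sequences. Ligand-free nuclear receptor dimers were incubated on the arrays for 1 h, antibodies against each partner (one per run) detected binding, and scanned fluorescence was regression-normalized. Binding z-scores take the random background probes as reference.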

Sequence of LXRa:RXRa (Q13133 whole entry, chain 1 of 2): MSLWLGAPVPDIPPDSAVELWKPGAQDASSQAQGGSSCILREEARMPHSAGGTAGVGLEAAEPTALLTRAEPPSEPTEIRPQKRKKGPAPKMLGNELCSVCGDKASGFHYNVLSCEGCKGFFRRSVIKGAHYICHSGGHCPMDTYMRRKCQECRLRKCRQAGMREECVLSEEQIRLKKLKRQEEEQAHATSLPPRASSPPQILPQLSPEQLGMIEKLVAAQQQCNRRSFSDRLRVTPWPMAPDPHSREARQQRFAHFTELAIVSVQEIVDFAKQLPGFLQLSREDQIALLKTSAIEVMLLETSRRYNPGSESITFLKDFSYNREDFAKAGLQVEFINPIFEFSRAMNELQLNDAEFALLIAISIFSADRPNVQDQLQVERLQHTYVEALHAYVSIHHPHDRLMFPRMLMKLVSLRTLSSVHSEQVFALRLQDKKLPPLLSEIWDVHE
Sequence of LXRa:RXRa (P19793 whole entry, chain 2 of 2): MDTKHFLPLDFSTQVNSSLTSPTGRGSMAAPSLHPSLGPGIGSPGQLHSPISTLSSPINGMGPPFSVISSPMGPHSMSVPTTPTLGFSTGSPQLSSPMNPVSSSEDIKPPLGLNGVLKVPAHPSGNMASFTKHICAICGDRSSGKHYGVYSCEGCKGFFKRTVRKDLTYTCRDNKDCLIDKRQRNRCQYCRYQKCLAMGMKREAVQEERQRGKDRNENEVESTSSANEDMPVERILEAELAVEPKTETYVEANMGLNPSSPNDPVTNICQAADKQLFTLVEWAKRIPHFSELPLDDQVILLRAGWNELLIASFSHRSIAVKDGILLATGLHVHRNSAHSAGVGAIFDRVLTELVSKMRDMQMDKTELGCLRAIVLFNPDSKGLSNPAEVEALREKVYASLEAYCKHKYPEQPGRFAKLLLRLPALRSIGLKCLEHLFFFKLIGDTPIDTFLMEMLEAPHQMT

Binder | binding signal
NRC3_wobSeed110_DR4_A18T_o1 (dsDNA) DNA 1: GCTCTGCTAGGTCAACGTTGGTCAGCTAATCTGCTAGCGATTGACAGCGTAGAATGAAGG DNA 2: CCTTCATTCTACGCTGTCAATCGCTAGCAGATTAGCTGACCAACGTTGACCTAGCAGAGC | 3.08 PBM z-score against 500 random probes
NRC3_wobSeed65_DR2_G11T_o1 (dsDNA) DNA 1: GCATATGTAGTTTATCGGGTCATTCAGTTTGCGCATGCGATTGACAGCGTAGAATGAAGG DNA 2: CCTTCATTCTACGCTGTCAATCGCATGCGCAAACTGAATGACCCGATAAACTACATATGC | 3.34 PBM z-score against 500 random probes
NRC3_wobSeed65_DR2_T24A_o1 (dsDNA) DNA 1: GCATATGTAGGTTATCGGGTCATACAGTTTGCGCATGCGATTGACAGCGTAGAATGAAGG DNA 2: CCTTCATTCTACGCTGTCAATCGCATGCGCAAACTGTATGACCCGATAACCTACATATGC | 3.1 PBM z-score against 500 random probes
NRC3_wobSeed140_DR5_T15A_o1 (dsDNA) DNA 1: GCAGAATGAGGTTAAACGTAGATCAGGGAAGAAAGTGCGATTGACAGCGTAGAATGAAGG DNA 2: CCTTCATTCTACGCTGTCAATCGCACTTTCTTCCCTGATCTACGTTTAACCTCATTCTGC | 3.17 PBM z-score against 500 random probes
NRC3_wobSeed128_DR5_G27T_o1 (dsDNA) DNA 1: GCTCTTGTAGATCAACAGGAGGTTAATAAAGATCGAGCGATTGACAGCGTAGAATGAAGG DNA 2: CCTTCATTCTACGCTGTCAATCGCTCGATCTTTATTAACCTCCTGTTGATCTACAAGAGC | 3.26 PBM z-score against 500 random probes
NRC3_wobSeed2_DR0_T5G_o1 (dsDNA) DNA 1: GCCCGAGTTGGTCAAGGTCACACACGCTATAGGTACGCGATTGACAGCGTAGAATGAAGG DNA 2: CCTTCATTCTACGCTGTCAATCGCGTACCTATAGCGTGTGTGACCTTGACCAACTCGGGC | 3.9 PBM z-score against 500 random probes
NRC3_wobSeed2_DR0_C23T_o1 (dsDNA) DNA 1: GCCCTAGTTGGTCAAGGTCACATACGCTATAGGTACGCGATTGACAGCGTAGAATGAAGG DNA 2: CCTTCATTCTACGCTGTCAATCGCGTACCTATAGCGTATGTGACCTTGACCAACTAGGGC | 3.72 PBM z-score against 500 random probes
NRC3_wobSeed2_DR0_A24C_o1 (dsDNA) DNA 1: GCCCTAGTTGGTCAAGGTCACACCCGCTATAGGTACGCGATTGACAGCGTAGAATGAAGG DNA 2: CCTTCATTCTACGCTGTCAATCGCGTACCTATAGCGGGTGTGACCTTGACCAACTAGGGC | 3.48 PBM z-score against 500 random probes
NRC3_wobSeed82_DR3_G17C_o1 (dsDNA) DNA 1: GCATCGAAAGGTCGACCAGGTGAGTATACACCGTTTGCGATTGACAGCGTAGAATGAAGG DNA 2: CCTTCATTCTACGCTGTCAATCGCAAACGGTGTATACTCACCTGGTCGACCTTTCGATGC | 3.67 PBM z-score against 500 random probes
NRC3_wobSeed138_DR5_C7T_o1 (dsDNA) DNA 1: GCGATATAGGGTCAGCTAGAGGCCAGAGTATGGAAAGCGATTGACAGCGTAGAATGAAGG DNA 2: CCTTCATTCTACGCTGTCAATCGCTTTCCATACTCTGGCCTCTAGCTGACCCTATATCGC | 3.06 PBM z-score against 500 random probes
NRC3_wobSeed64_DR2_A4T_o1 (dsDNA) DNA 1: GCTTGCCTAGGTCATTGGGCCAGTATAGTACGCATCGCGATTGACAGCGTAGAATGAAGG DNA 2: CCTTCATTCTACGCTGTCAATCGCGATGCGTACTATACTGGCCCAATGACCTAGGCAAGC | 3.21 PBM z-score against 500 random probes
NRC3_wobSeed123_DR5_G26T_o1 (dsDNA) DNA 1: GCCCTCGGAGGACAACAGGAGGTCATAGCTGCCAGAGCGATTGACAGCGTAGAATGAAGG DNA 2: CCTTCATTCTACGCTGTCAATCGCTCTGGCAGCTATGACCTCCTGTTGTCCTCCGAGGGC | 3.93 PBM z-score against 500 random probes
NRC3_wobSeed99_DR4_C13A_o1 (dsDNA) DNA 1: GCTCTCGGAGGAAACGAAAGGTCAGAGCTCGACATCGCGATTGACAGCGTAGAATGAAGG DNA 2: CCTTCATTCTACGCTGTCAATCGCGATGTCGAGCTCTGACCTTTCGTTTCCTCCGAGAGC | 3.75 PBM z-score against 500 random probes
NRC3_wobSeed141_DR5_G21C_o1 (dsDNA) DNA 1: GCAGTCAAAGTTCAGGACGACGTAACGTAAAGCACGGCGATTGACAGCGTAGAATGAAGG DNA 2: CCTTCATTCTACGCTGTCAATCGCCGTGCTTTACGTTACGTCGTCCTGAACTTTGACTGC | 3.38 PBM z-score against 500 random probes
NRC3_wobSeed4_DR0_G11T_o1 (dsDNA) DNA 1: GCCCTACTGGTCCAAGGTCATTGATCAGTCAAAGCAGCGATTGACAGCGTAGAATGAAGG DNA 2: CCTTCATTCTACGCTGTCAATCGCTGCTTTGACTGATCAATGACCTTGGACCAGTAGGGC | 3.7 PBM z-score against 500 random probes
NRC3_wobSeed4_DR0_G11A_o1 (dsDNA) DNA 1: GCCCTACTGGACCAAGGTCATTGATCAGTCAAAGCAGCGATTGACAGCGTAGAATGAAGG DNA 2: CCTTCATTCTACGCTGTCAATCGCTGCTTTGACTGATCAATGACCTTGGTCCAGTAGGGC | 3.62 PBM z-score against 500 random probes
NRC3_wobSeed20_DR0_A17T_o1 (dsDNA) DNA 1: GCAGAATGAGGTTAAGTTCAGGGAAACAGAATACATGCGATTGACAGCGTAGAATGAAGG DNA 2: CCTTCATTCTACGCTGTCAATCGCATGTATTCTGTTTCCCTGAACTTAACCTCATTCTGC | 3.43 PBM z-score against 500 random probes

Binder | binding signal
NRC3_wobSeed40_DR1_A24G_o1 (dsDNA) DNA 1: GCTAGCCTAGGTCATGGGCCAGTGTACCACGCGAACGCGATTGACAGCGTAGAATGAAGG DNA 2: CCTTCATTCTACGCTGTCAATCGCGTTCGCGTGGTACACTGGCCCATGACCTAGGCTAGC | 3.31 PBM z-score against 500 random probes
NRC3_wobSeed40_DR1_A4C_o1 (dsDNA) DNA 1: GCTCGCCTAGGTCATGGGCCAGTATACCACGCGAACGCGATTGACAGCGTAGAATGAAGG DNA 2: CCTTCATTCTACGCTGTCAATCGCGTTCGCGTGGTATACTGGCCCATGACCTAGGCGAGC | 3.18 PBM z-score against 500 random probes
NRC3_wobSeed87_DR3_A21T_o1 (dsDNA) DNA 1: GCCGAACTAGGTCATCCAGGTCAGTGAATACATTGAGCGATTGACAGCGTAGAATGAAGG DNA 2: CCTTCATTCTACGCTGTCAATCGCTCAATGTATTCACTGACCTGGATGACCTAGTTCGGC | 3.37 PBM z-score against 500 random probes
NRC3_wobSeed104_DR4_A14G_o1 (dsDNA) DNA 1: GCTCTTGTAGATCGATAGAGGTTAAGAAAGTGCGCTGCGATTGACAGCGTAGAATGAAGG DNA 2: CCTTCATTCTACGCTGTCAATCGCAGCGCACTTTCTTAACCTCTATCGATCTACAAGAGC | 3.15 PBM z-score against 500 random probes
NRC3_wobSeed61_DR2_A17G_o1 (dsDNA) DNA 1: GCCGTCCAAGGTCAGCGGGTCAGTGAAAGCGACGTGGCGATTGACAGCGTAGAATGAAGG DNA 2: CCTTCATTCTACGCTGTCAATCGCCACGTCGCTTTCACTGACCCGCTGACCTTGGACGGC | 3.86 PBM z-score against 500 random probes
NRC3_wobSeed135_DR5_G26A_o1 (dsDNA) DNA 1: GCCGAACTAGGTCATTGACAGGACAATGAATAGTAAGCGATTGACAGCGTAGAATGAAGG DNA 2: CCTTCATTCTACGCTGTCAATCGCTTACTATTCATTGTCCTGTCAATGACCTAGTTCGGC | 3.59 PBM z-score against 500 random probes
NRC3_wobSeed124_DR5_T26A_o1 (dsDNA) DNA 1: GCCCTACTGGGCCATTCAGAGGTCAATGATCATATGGCGATTGACAGCGTAGAATGAAGG DNA 2: CCTTCATTCTACGCTGTCAATCGCCATATGATCATTGACCTCTGAATGGCCCAGTAGGGC | 3.77 PBM z-score against 500 random probes
NRC3_wobSeed124_DR5_A14G_o1 (dsDNA) DNA 1: GCCCTACTGGGCCGTTCAGAGGTCATTGATCATATGGCGATTGACAGCGTAGAATGAAGG DNA 2: CCTTCATTCTACGCTGTCAATCGCCATATGATCAATGACCTCTGAACGGCCCAGTAGGGC | 3.51 PBM z-score against 500 random probes
NRC3_wobSeed88_DR3_G24A_o1 (dsDNA) DNA 1: GCTAGCCTAGGTCATGCGGGCCAATATAGTGTCGGCGCGATTGACAGCGTAGAATGAAGG DNA 2: CCTTCATTCTACGCTGTCAATCGCGCCGACACTATATTGGCCCGCATGACCTAGGCTAGC | 3.29 PBM z-score against 500 random probes
NRC3_wobSeed5_DR0_A25C_o1 (dsDNA) DNA 1: GCCCTTACGGGTCAAGGTTATAGCCCGGGTGGTACGGCGATTGACAGCGTAGAATGAAGG DNA 2: CCTTCATTCTACGCTGTCAATCGCCGTACCACCCGGGCTATAACCTTGACCCGTAAGGGC | 3.64 PBM z-score against 500 random probes
NRC3_wobSeed34_DR1_T23C_o1 (dsDNA) DNA 1: GCATCGAAAGGTCGAAGGTGAGCATACCCACCCGAAGCGATTGACAGCGTAGAATGAAGG DNA 2: CCTTCATTCTACGCTGTCAATCGCTTCGGGTGGGTATGCTCACCTTCGACCTTTCGATGC | 3.46 PBM z-score against 500 random probes
NRC3_wobSeed134_DR5_G26T_o1 (dsDNA) DNA 1: GCGCTGCTAGGTCAACTGATGGTCATCTAAAGCTCGGCGATTGACAGCGTAGAATGAAGG DNA 2: CCTTCATTCTACGCTGTCAATCGCCGAGCTTTAGATGACCATCAGTTGACCTAGCAGCGC | 3.56 PBM z-score against 500 random probes
NRC3_wobSeed102_DR4_G19A_o1 (dsDNA) DNA 1: GCCCTAGCAGGCCAATCTAGGTCACTCAAGGCTTGAGCGATTGACAGCGTAGAATGAAGG DNA 2: CCTTCATTCTACGCTGTCAATCGCTCAAGCCTTGAGTGACCTAGATTGGCCTGCTAGGGC | 3 PBM z-score against 500 random probes
NRC3_wobSeed75_DR3_G16A_o1 (dsDNA) DNA 1: GCTCTCGGAGGACACAAAGGTCAGAGCTTTCCAGAGGCGATTGACAGCGTAGAATGAAGG DNA 2: CCTTCATTCTACGCTGTCAATCGCCTCTGGAAAGCTCTGACCTTTGTGTCCTCCGAGAGC | 3.54 PBM z-score against 500 random probes
NRC3_wobSeed73_DR3_A18T_o1 (dsDNA) DNA 1: GCCAAACTAGGTCACAGTGGTCAAAGTCCGTGCGTAGCGATTGACAGCGTAGAATGAAGG DNA 2: CCTTCATTCTACGCTGTCAATCGCTACGCACGGACTTTGACCACTGTGACCTAGTTTGGC | 3.02 PBM z-score against 500 random probes
NRC3_wobSeed74_DR3_C26A_o1 (dsDNA) DNA 1: GCTCTAGTTGGTCACGGAGGTCACAAACGACGGGTAGCGATTGACAGCGTAGAATGAAGG DNA 2: CCTTCATTCTACGCTGTCAATCGCTACCCGTCGTTTGTGACCTCCGTGACCAACTAGAGC | 3.23 PBM z-score against 500 random probes
